Assay: label from the status in PepcDB records

Row | Sequence | protein production
1 | MVPSGVRTGRWVAAARAAQRRPRVDSLGQPPSPESASTRAALYVHWPYCEKRCSYCNFNKYIPRGVEEGTVRNCLVTEARTLLRLSGVQRVESVFFGGGTPSLASPHTVAAVLEAVAQEVYLPADSEVTLEANPTSAPGPRLAAFGAAGVNRLSIGLQSLDDAELQLLGRTHSASDALRTLAEARLLFPGRVSVDLMLGLPAQKVEPWLQQLQKLLYHCDDHLSLYQLTLERGTSLFAQVQQGTLPAPDPDLAAEMYQEGRTVLRDAGFRQYEVSNFARNGALSTHNWTYWQCGQYLGIGPGAHGRFVPQGTGGHTREARIQTLEPDNWMKEVTLFGHGTRKCVRLGKLELLEEVLAMGLRTDVGVTHQHWQQFEPQLTLWDVFGASKEVEELLAQGLLLLDYRGLRCSWEGLAVLDSLLLTLLPQLQEAWQHRPSSPVSGG | failed
2 | ACEQNEDWVVNEPMQSFEENPEYAPLNTIPDWVSEKVTPKEYELWRTMSSRYEINYSFLKKDISEKRKKEIYDCINNICERIEKGQINKYEGFLNIADEDGTTLSDSQYFGRIATRSPEGGAEYKTNGCTLYTHSLGPYIKAAVTYKKSDDDVTITSSSVYTGSPYLGNDPSFSGASSVSYDKDKKLIAASCSGTLSFKDGSRKVEVTVQKTGFMIP | not failed
3 | MDAKQLSKRLATVGAFVQPGARVADIGSDHAYLPANLALNHQISYGVAGEVVRGPFENARHEIQKLGLTDRLVARLADGLAAIEPADRIDTVTIAGMGGPLIRHILEQGPTQLAGVQRLVLEPNVGEATVREWLAANQFQIVAERILAEDGHTYEILCADRVDHQVTYTTAEQMFGPFLLAEKSPVFIAKWQRELQRVNAAVAQMQRAKVIPEEQLALAHAKIKLIEGVLTDASK | failed
4 | MSLHPHLNANLEGGVLTLAINRPEAKNALYGELYLWIAKALDEADQNKDVRVVVLRGAEHDFTAGNDMKDFMGFVQNPNAGPAGQVPPFVLLKSAARLSKPLIIAVKGVAIGIGVTILLQADLVFADNTALFQIPFVSLGLSPEGGASQLLVKQAGYHKAAELLFTAKKFNAETALQAGLVNEIVEDAYATAQATAQHLTALPLASLKQTKALMKHDLDQIIECIDHEAEIFMQRVQSPEMLEAVQAFMQKRQPDFSQEGHHHHHH | not failed
5 | MGHHHHHHSHMFASCHCVPRGRRTMKMIHFRSSSVKSLSQEMRCTIRLLDDSEISCHIQRETKGQFLIDHICNYYSLLEKDYFGIRYVDPEKQRHWLEPNKSIFKQMKTHPPY | failed
6 | MGKRFSSFQAAQIRIARPTGQLDEIIRFYEEGLCLKRIGEFSQHNGYDGVMFGLPHADYHLEFTQYEGGSTAPVPHPDSLLVFYVPNAVELAAITSKLKHMGYQEVESENPYWSNGGVTIEDPDGWRIVFMNSKGISGK | not failed
7 | MADIIGLLLPFFGLIFIGYGAARITKQPVEAMGWLNTFIIYAALPALFFKLVSKTPVEELARMDFVAASLACTYGIFLAVFLIGRFVRRNSLAETTIQSFAASYGNIGYMGPGLALLALGEKAAVPVALIVCLENAAHFIVAPAMMAVAGGDKRSAGKLALDVARKVITHPFIVSVIAGFLAASLSWQPPEAVQRLVDYLAQSAAPCALFAMGVTLALRPMKRVPVEISYIVPAKLILHPLAAYLVLSSLGRFEPVWIYSAVLLAALPTATNVFVIGQQYHVWQERASATILISTVLSVFTLTGVVYFIQPF | failed
8 | SRSKQKSRRRCFQCQTKLELVQQELGSCRCGYVFCMLHRLPEQHDCTFDHMGRG | not failed
9 | MREEKIREALNAHWQASAAGDFDAEHDIYDDDAICDYPQSGERILGRMNLQALRSHHPGKPAGFEVRRIQGEGNLWITEYSISYNGRPAYTVSIMEFRNGKVVHETQYFSDPFEAPGWRSQWVQQIG | not failed
10 | MSNPLLSIIIPTHNRPHLVTHAVQSALEQTMEDLEVIVVDDASTQPIDLPSHPRLRLIRLLQSHGGAGARNVGLEAALGRWVAFLDDDDRLLPQMAEVSLEALSQTSLPAPVAVISGLEEVNAQGKVLGQRLPPPLRPRGVHFFLEEIEPDQSYNTKQTLVVEREVLQKIGGWDEEMRSRVHSELFLRLNPACSIIGLPIITYQLYNHGGQRVSRNPMLRQESFLRLVHKHKSLFQAHPQMFAKLVYEHANKCYEIGLKREAFYNLFWSMQLDPLQIAPRVVTRVYQSRLKFVIRSYKLKH | failed
11 | MKKQLIKSSTFRTLEVIIITVISLVLTPYLIHHLGDAHYGLWILILSALGWFNFIDLGFAYAVQRNIVLALENKDNHRINIVFSVAVALFSVLGFIAAFCVLVLAFFPELLGINEKEQSIATIAFSILAIKVFLDFIMNCFHGFFTAYLRMDIDANLGTLNMVVKSILVFYLIIDMNIYGAVFATIAADILTHSLKMHFARKLHPEFKFVLHLVKFSEVRQLFAFSKHLILMGMAKSVNRRVDPIIISHLLGLKFVAIYNVINSLMNQVESLVGAIVGVFQPVLTKMVARNTGLDGTFKLIISINFFTVILLYMPLAILAEDFITLWIGLDYAQAGQLAPILGFAYICRTVSRPISSLLLAKAQHQLLSVVNLLGALLNIGLSLVLGSQWGLLGIAIATACSFFVSDVILHLVLLNKYTELPVLKPILEFIKLVVLYILLVVLGISMMQLFEPLNWGQLIIAAIACVCIALLIAWPMLLDKEVKQKLLGMLIKTGKAHD | failed
12 | MTMTHLNRLILISLLFVSLLLKSSTASSTVVDEGNRTSRNFRYRTHRFVPRFNHHPYHVTPHRSCDSFIRPYARSMCIELQRIHRSSRKQPLLSPPPPEIDPRYGVDKRLVPSGPNPLHN | failed
13 | MSAEAADREAVSGSRPCTPPQTSWFEFLLNPSLLEQHLHSPHPDPSPVQLIFQFLEQASKPSVNEQNQVQPPVDNRRNRTLKLMALKVAAHLRWDLNMLEKGLTIPVLNMLLNELLCVSHVPPGVKHVDLDLSSLPPTTAMAVVFYNRWAIRTIVLSSFPEKQTKPGPHQLNMMNMLQQEKEHTENILSVLREQATDSIMVLEGALSIKKDFYIHL | not failed
14 | MLNPDELVAIDIHTHAEEPCGCHADDGYDDFQARMAEYFGSPNKHPPTVPETAAYYRAKKIAAVIFPVDAERETGFRRYNNDEMIEITRQNSDVLIPFASIDPHKGKIGVREARRLIADYGIKGFKFHPTMQGFYANDRLAYPLYEAIQEGGAIALFHTGQTGVGSGMPGGMGMRLKYSNPMYMDDVAADFPDMKIVLAHPSFPWQEEALSVATHKPNVYIDLSGWSPKYFPPILVRYINSILQDKMLFGSDWPVITPDRWLSDFAKLEIREEVRAKVLKQNARKLLGI | failed
15 | RQQSMAERHDYDQKEEKTDGGELVSSYMCSPETAAEEFEISKKLYAQLTGRSQSEKHDIIMYRIIQSFKPDEVSPEEAHKIGCELAMKFTGGQHQFVVATHTDKRHIHTHIEFNSTNLNCDAKFQNVKNSAFILRRMNDELCRAHGLSVIENPKKKARPQKEMAAAQYGVSHKKQLQQAIDRLLPECNHYEEFLAKMRAEGYEVVDGKNPGFRLPGWDRPTRVNRLG | not failed
16 | MGTLTCKDLNHKYRDTTMYKQQQIKQWFCGLSSITCQHISDWQKPHLGVLCAASAFLVLAAPVVNLPGSKLLAQTPISRDLETASFYQQGVTRYNRSDWQGAENAFRQALQREPNLAMARAYLGNIYLMQNRLDVAVQEYGEAIRLNPNLGETYYNLGLALQQQGKKEGAITAYRQALVIDPRRVEAYYNLGLVLYEQGLLQEAIAAYQDAVNLEPSKINAHHNLAIALQQTGKMEEAIVAYREVLKLDPKNAAAYSSLGSLMAMQGRPEEAIAAYTQAVRQDPKNALAYYNLGITLYNQGELQKASNAFKRAQEEYSQQGNLEQTEKTEQLMQQVAQKIEEQKLQQRQASTPKPTDNSTNNLLEKLTQLTAPKEQPANSGAVPVSDEQKQFPPIFPNTNSR | failed
17 | MNVTPWEVEGVIDYSKLIEEFGMQPFSEVLPEIDNPHILMRRGAIFGHRDYWRIIEAMQKKEPWAVMSGFMPSGLPHFGHKMTMDEIVWHQSAGGKAFVAIADMEAHSVRGLSWEKTRELGMLYIKSIIALGLREDAVIYFQSKSSHVKDLAFELSAEVNFSELRAIYGFNSDTSLAKMFVTAIQAADILHPQLSDFGGPKPVVVPVGADQDPHMRLTRDLAARISIFSFEPVEGGVRVRSRKGAEYLSSLRDLEFDKKIYEEHMDIFGEAEEIERAVRKIEVEIGGFAFIPPSSTYHRFTTGLTGGKMSSSKPESYISLLDPPEEGAKKVMKAFTGGRATAEEQRRLGGEPDRCVVFELYSFHLIDSDEELNQIEAECREGRLLCGKCKKMAAELVKSFLKEHQEKMEAVDLSNYTIIG | failed
